Reference: US12570725 (DUKE UNIVERSITY, dated 2026)

Key:
Assay in all cases: cell-based or functional assay
[1] = molecular target: Dengue virus serotype 3 virion (Dengue virus serotype 3)
[2] = molecular target: Dengue virus serotype 1 virion (Dengue virus serotype 1)
[3] = molecular target: Dengue virus serotype 2 virion (Dengue virus serotype 2)
[4] = molecular target: Dengue virus serotype 4 virion (Dengue virus serotype 4)

Measured: FRNT50

B1: 119-1-D7 (antibody, V domains shown)
VH: EVQLVESGGGLVKPGGSLRLSCVASGFTFNIYNMNWVRQAPGRGLEWVSSISLSSSYIDYADSVEGRFTISRDNAKNSLSLQMNSLKAEDTAVYYCARGRRGEWLVLHDAFDLWGQGTLVTVSS
VL: EIVLTQSPDTLSLSPGEGATLSCRASRTITSTYLAWYQQKPGQAPRLLMYSVSTRAPGIPDRFSGSGSGTDFTLTISRLEPEDFAVYFCQQYGSTPPYTFGQGTKLEIR
> 5 µg/mL: [1] | [2] | [3] | [4]
